Experimental data reported in patent publication US20250277030A1, “ANTI-NAPI2B ANTIBODIES AND METHODS OF USE” (Zymeworks BC Inc., priority 2022, published 2025).

What was measured:
[1] = AC-SINS self-aggregation propensity; assay type: physicochemical; conditions: 0.05 mg/mL in PBS pH 7.4; cutoff 10 nm = high self-aggregation propensity
Experimental: The isoelectric point was measured by capillary isoelectric focusing (cIEF), the propensity for self-aggregation was measured by Affinity-capture self-interaction nanoparticle spectroscopy (AC-SINS) and non-specific binding was measured by NS-ELISA, as described below.
AC-SINS method was carried out in a 384-well plate format (Corning®#3702). Initially, 20 nm gold nanoparticles (Ted Pella, Inc., #15705) washed with 0.22 μm filtered Gibco™ Distilled Water were coated with a mixture of capture antibody—80% AffiniPure Goat Anti-Human IgG (H+L) (Jackson ImmunoResearch Laboratories® #109-005-088), and the non-capture antibody −20% ChromPure Goat IgG, whole molecule (Jackson ImmunoResearch Laboratories® #005-000-003), that were initially buffer exchanged into 20 mM sodium acetate pH 4.3 and diluted to 0.4 mg/mL. […] The absorbance was read from 450-700 nm at 1 nm increments, and a Microsoft Excel macro was used to identify the max absorbance, smooth the data, and fit the data using a second-order polynomial. The Alambda (nm) was calculated based on the smoothed max absorbance of the average blank (PBS alone) subtracted from the smoothed max absorbance of the antibody sample to determine the antibody AC-SINS score. Antibody-antibody interactions directly correlate with the shift in maximum absorbance wavelength of gold nanoparticles coated with the antibody of interest. […]

[2] = Stability (fragmentation) in PBS pH 7.4 at 37° C. by LC-MS; assay type: physicochemical; conditions: for apparent % desired proteoforms: PBS 37° C., 0.5 mg/ml
Experimental: Samples were removed after 0, 7 and 14 days and stored at −80° C. until characterization. For characterization, samples were thawed at room temperature and 50 μg were incubated with 5 μg of recombinant EndoS endoglycosidase for one hour at room temperature. An immunoprecipitation slurry was generated by a 45 min incubation of 95 μL/sample of magnetic Sepharose streptavidin-coated beads with 15 μg/sample of biotinylated goat anti-Human IgG Fc capture antibody, followed by 4 washes with PBS pH 7.4 with the aid of a DynaMag™-2 magnet (Invitrogen™).
After deglycosylation, plasma-incubated samples were incubated with 95 μL of the immunoprecipitation slurry for 1.5 hrs at room temperature. Then, the slurry underwent 6 washes with PBS pH 7.4 and 2 washes with LC-MS-grade water with the aid of a DynaMag™-2 magnet (Invitrogen™). A final wash with PBS pH 7.4 was performed before elution. Protein was eluted by incubating beads with 35 μL of LC-MS grade water with 20% acetonitrile and 0.1% formic acid for one hour at room temperature. PBS samples were not immunoprecipitated.
5 μL of the eluted sample were transferred to glass inserts in LC-MS vials. For LC-MS analysis, 1 μL of sample were injected into a Waters™ BioSuite Phenyl Column, 1000 Å, 10 μm, 4.6 mm×75 mm using a Waters™ ACQUITY™ UPLC I-Class HPLC system coupled to a Waters™ Synapt™ G2-Si HDMS with a column temperature of 70 C and a flow rate of 0.3 mL/min. Mobile phases consisted of A: LC-MS grade water with 0.1% v/v formic acid, 0.025 v/v trifluoroacetic acid and 10% v/v isopropyl alcohol in, and B: acetonitrile with 0.1% v/v formic acid and 10% v/v isopropyl alcohol. The column was pre-equilibrated in 10% mobile phase B before injection. Then, a 20 min 10 to 27% mobile phase B gradient was applied, followed by a 2 min 27 to 90% mobile phase B gradient and a column wash of 2 min at 99% mobile phase B.
The column was re-equilibrated to 10% mobile phase B for 2 minutes between runs. ESI was performed in positive mode with 3 kV of capillary voltage, 120 C source temperature, 100 V sampling cone voltage, source offset of 80 V, source gas flow of 0 ml/min, desolvation temperature 500 C, cone gas flow 0 μL/Hr, desolvation gas flow […], nebuliser gas flow 6.5 bar. Data format was continuum with analyser set in sensitivity mode, with a m/z range from 500 to 7000.
Peak integration, MS deconvolution and mass assignments were performed in Protein Metrics Byos® v4.0 using a deconvolution window of 60000-160000 Da with an m/z range of 1000-4000. For all time points, the highest intensity deconvoluted mass was assigned as the reference mass of v29456. […]

B1: v29456: humanized anti-NaPi2b IgG1/kappa antibody H1L2; VH SEQ ID NO:24, VL SEQ ID NO:29 (antibody, V domains shown)
VH: QVQLVQSGAEVKKPGASVKVSCKASGFTFTSYNVHWVRQAPGQGLEWMGAISPGNGDLSYAQKFQGRVTMTRDTSTSTVYMELSSLRSEDTAVYYCARGRTGMGAVDYWGQGTLVTVSS
VL: DVQMTQSPSSLSASVGDRVTITCRASQDVYSYLNWYQQKPGKAVKLLIYYTSRLQSGVPSRFSGSGSGTDYTLTISSLQPEDFATYYCQQYNIFPWTFGQGTKLEIK
modifications: v29452, v29456, v29460 VH (H1); v29453, v29454, v29455, v29456 VL (L2)
- AC-SINS Δlambda (nm) [1]: 2.5 nm
- fragmentation in PBS pH 7.4, in words ([2]; 37° C., 7 and 14 days): no evidence of fragmentation
- apparent % desired proteoforms ([2]; 0 days): 99.8%
- apparent % desired proteoforms ([2]; 7 days): 99.2%
- apparent % desired proteoforms ([2]; 14 days): 99.6%
